T1: recombinant BCMA-Fc (soluble human BCMA fused at its C-terminus to an Fc region of IgG) fusion polypeptide (human, UniProt Q02223 1-54)
T1 construct: Used as a staining control; also called recombinant BCMA-Fc fusion polypeptide; not shown: Fc region of IgG
T1 sequence (looked up): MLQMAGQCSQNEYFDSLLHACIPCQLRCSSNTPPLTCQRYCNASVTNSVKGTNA

T2: soluble monomeric BCMA-human Fc fusion protein (UniProt Q02223 1-54, limits assumed)
T2 construct: also called Monomeric BCMA-Fc; not shown: human Fc
T2 sequence (looked up): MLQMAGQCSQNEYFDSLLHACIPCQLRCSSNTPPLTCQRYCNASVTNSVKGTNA

T3: soluble dimeric BCMA-human Fc fusion protein (UniProt Q02223 1-54, limits assumed)
T3 construct: also called Dimeric BCMA-Fc; not shown: human Fc
T3 sequence (looked up): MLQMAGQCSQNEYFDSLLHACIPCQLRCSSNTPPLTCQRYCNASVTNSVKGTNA

B1: anti-BCMA CAR 1 (chimeric antigen receptor with the scFv of anti-BCMA Target Antibody 1) (receptor)
chain: SYELTQPPSASGTPGQRVTMSCSGTSSNIGSHSVNWYQQLPGTAPKLLIYTNNQRPSGVPDRFSGSKSGTSASLAISGLQSEDEADYYCAAWDGSLNGLVFGGGTKLTVLGSRGGGGSGGGGSGGGGSLEMAEVQLVQSGAEVKKPGESLKISCKGSGYSFTSYWIGWVRQMPGKGLEWMGIIYPGDSDTRYSPSFQGHVTISADKSISTAYLQWSSLKASDTAMYYCARYSGSFDNWGQGTLVTVSS
notes: Whole receptor expressed on Jurkat T cells; not shown: human IgG-derived spacer, human CD28-derived transmembrane domain, human 4-1BB-derived intracellular signaling domain an
B2: soluble monomeric scFv-Fc fusion protein (scFv from anti-BCMA CAR 2) (Fc fusion)
chain: QSALTQPASVSASPGQSIAISCTGTSSDVGWYQQHPGKAPKLMIYEDSKRPSGVSNRFSGSKSGNTASLTISGLQAEDEADYYCSSNTRSSTLVFGGGTKLTVLGSRGGGGSGGGGSGGGGSLEMAEVQLVQSGAEMKKPGASLKLSCKASGYTFIDYYVYWMRQAPGQGLESMGWINPNSGGTNYAQKFQGRVTMTRDTSISTAYMELSRLRSDDTAMYYCARSQRDGYMDYWGQGTLVTVSS
notes: not shown: Fc
B3: soluble dimeric scFv-Fc fusion protein (scFv from anti-BCMA CAR 2) (Fc fusion)
chain: QSALTQPASVSASPGQSIAISCTGTSSDVGWYQQHPGKAPKLMIYEDSKRPSGVSNRFSGSKSGNTASLTISGLQAEDEADYYCSSNTRSSTLVFGGGTKLTVLGSRGGGGSGGGGSGGGGSLEMAEVQLVQSGAEMKKPGASLKLSCKASGYTFIDYYVYWMRQAPGQGLESMGWINPNSGGTNYAQKFQGRVTMTRDTSISTAYMELSRLRSDDTAMYYCARSQRDGYMDYWGQGTLVTVSS
notes: not shown: Fc

What was measured:
[1] = target: T1, recombinant BCMA-Fc (soluble human BCMA …); test: flow cytometry; Jurkat T cells expressing anti-BCMA CAR 1, staining with recombinant BCMA-Fc as control
[2] = target: T4, anti-BCMA CAR 2 (chimeric antigen receptor with the scFv of anti-BCMA Target Antibody 2); test: flow cytometry; Jurkat T cells expressing anti-BCMA CAR 2, 5 µg/mL purified anti-ID, goat anti-mouse IgG secondary antibody; parental Jurkat cells as negative
T4 construct: Whole receptor expressed on Jurkat T cells, Nur77-tdTomato reporter cells or primary human T cells; not shown: human IgG2 and IgG4-derived spacer, human CD28-derived transmembrane domain, human 4-1BB-derived intracellular signaling

[3] = target: B2; test: SPR, BIAcore T200, against monomeric scFv-Fc
Method: (§1) Off rates and equilibrium dissociation constants were determined against a soluble monomeric scFv-Fc fusion protein as well as against a soluble dimeric scFv-Fc fusion protein. For comparison, the kinetics and affinity of soluble monomeric and dimeric BCMA-human Fc fusion proteins were also assessed against the monomeric and dimeric scFv-Fc fusion proteins, respectively. Off rates and equilibrium dissociation constants were determined using a BIAcore T200 instrument.

[4] = target: B3; test: SPR, BIAcore T200, against dimeric scFv-Fc
Method: as §1

[5] = target: B1; test: flow cytometry; Jurkat T cells expressing anti-BCMA CAR 1, anti-ID conjugated to Alexa Fluor 647
[6] = target: T2, soluble monomeric BCMA-human Fc fusion …; test: SPR, BIAcore T200, against monomeric scFv-Fc
Method: as §1

[7] = target: T3, soluble dimeric BCMA-human Fc fusion …; test: SPR, BIAcore T200, against dimeric scFv-Fc
Method: as §1

[8] = target: B1; test: flow cytometry; Jurkat T cells expressing anti-BCMA CAR 1, 2.5 µg/mL anti-ID conjugated to Alexa Fluor 647, 20 min at 4 °C

Row | Kd [3] [nM] | koff [3] [s⁻¹] | Kd [4] [nM] | koff [4] [s⁻¹] | Binder | further results
1 |  |  |  |  | B1 | binding result [1]: binds
2 |  |  |  |  | anti-idiotype antibody clone 10 (antibody, mouse IgG1, kappa, V domains shown, Mouse hybridoma antibody raised against the anti-BCMA CAR 1 scFv fused to mouse Fc and purified; Detected with a goat anti-mouse IgG secondary antibody; also called anti-ID clone 10) VH: EVKLLESGGGLVQPGGSLKLSCAASGFDFSRYWMSWVRQAPGKGLEWIGEINPDSSTINYTPSLKDKFIISRDNAKNTLYLQMSKVRSEDTALYYCARHGYYWYFDVWGAGTTVTVSS VL: DIQMTQTTSSLSASLGDRVTISCRASQDISNYLNWYQQKPDGTVKLLIYYTSRLHSGVPSRFSGSGSGTDYSLTISNLEQEDIATYFCQQGNTLPYTFGGGTKLEIKR | binding result [2]: binds
3 | 12 | 0.005 | 2.6 | 0.00014 | anti-idiotype antibody clone 16 (antibody, mouse IgG1, kappa, V domains shown, Mouse hybridoma antibody, purified; also called anti-ID clone 16) VH: QVQLQQSGPELVKPGASVKISCKASGYTFTDFYINWVKQRPGQGLEWIGWIFPRSGSTYYNEKFKGKATLSVDKSSITAYMLLSSLTSEDSAVYFCARGDGYSGAMDYWGQGTSVTVSS VL: DIQMTQTTSSLSASLGDRVTISCSASQGIRNYLNWYQQKPDGTVKLLIYYTSNLHSGVPSRFSGSGSGTDYSLTISNLEPEDIATYYCQQYNNLPRTFGGGTKLEIKR | binding result [5]: no binding (tested: 2.5 µg/mL)
4 |  |  |  |  | B2 | Kd [6]: 290 nM; koff [6]: 0.024 s⁻¹
5 |  |  |  |  | B3 | Kd [7]: 7 nM; koff [7]: 0.00014 s⁻¹
6 | 55 | 0.0081 | 3.6 | 6.2e-05 | anti-idiotype antibody clone 19 (antibody, mouse IgG2b, kappa, V domains shown, Mouse hybridoma antibody, purified; also called anti-ID clone 19) VH: QVQLQQSGAELMKPGASVKLSCKATGYTFTAYWIEWVKQRPGHGLEWIGEILPGSGITKYSEKFKGKATFTADTSSNTAYMQLSSLTTEDSAIYYCARDYYSDNYWGQGTSVTVSS VL: not shown | 
7 | 18 | 0.0036 | 2.2 | 4.4e-05 | anti-idiotype antibody clone 15 (antibody, mouse IgG1, kappa, V domains shown, Mouse hybridoma antibody, purified; also called anti-ID clone 15) VH: QVQLQQSGAELVKPGASVKISCKASGYAFSSYWMNWVKQRPGKGLEWIGQIYPGNGETNNNGKFKGKATLTADISSSTAYMQLSSLTSEDSAVYFCARGGWYFDVWGTGTTVTVSS VL: DIQMTQSPASLSASVGETVTITCRASENIYSYLAWYQQKQGKSPHLLVYNAYTLAEGVPSRFSGSGSDTQFSLKINSLQPEDFGNYYCQHHYGTPWTFGGGTKVEIKR | binding result [8]: binds
